Measured values reported in patent US20210363249A1 (INNATE PHARMA, published 2021).

What was measured:
[1] = target: T1, Human Siglec-9 (human, UniProt Q9Y336 18-463); experiment: flow cytometry on fresh purified human NK cells gated CD3-/CD56+, isotype control staining
T1 construct: Expressed on transfected CHO cells and YTS cells; also called huSiglec-9; CD329

[2] = target: Human Siglec-7 (human) (UniProt Q9Y286); experiment: as above
[3] = target: T1, Human Siglec-9; experiment: flow cytometry titration on neuraminidase-treated (desialylated) moDCs; goat F(ab')2 anti-human IgG (Fc) PE
Experimental: (§1) moDC were desialylated for 2 hours with 25 mU neuraminidase (Roche Diagnostics).
(§2) Binding on moDCs and neuraminidase treated moDCs was tested in a titration experiment by flow cytometry. Cells were incubated 1 h in Staining Buffer (SB) with primary antibodies at 10 ug/ml and a series of dilution of 1:10. They were washed two times with SB, then incubated 30 min with a Goat F(ab′)² Anti-Human IgG (Fc) PE (Jackson lmmunoresearch), and washed twice with SB.

[4] = target: T1, Human Siglec-9; experiment: flow cytometry titration on moDC against neuraminidase-treated moDC
Experimental: as §1, §2

T1 sequence (Q9Y336 18-463): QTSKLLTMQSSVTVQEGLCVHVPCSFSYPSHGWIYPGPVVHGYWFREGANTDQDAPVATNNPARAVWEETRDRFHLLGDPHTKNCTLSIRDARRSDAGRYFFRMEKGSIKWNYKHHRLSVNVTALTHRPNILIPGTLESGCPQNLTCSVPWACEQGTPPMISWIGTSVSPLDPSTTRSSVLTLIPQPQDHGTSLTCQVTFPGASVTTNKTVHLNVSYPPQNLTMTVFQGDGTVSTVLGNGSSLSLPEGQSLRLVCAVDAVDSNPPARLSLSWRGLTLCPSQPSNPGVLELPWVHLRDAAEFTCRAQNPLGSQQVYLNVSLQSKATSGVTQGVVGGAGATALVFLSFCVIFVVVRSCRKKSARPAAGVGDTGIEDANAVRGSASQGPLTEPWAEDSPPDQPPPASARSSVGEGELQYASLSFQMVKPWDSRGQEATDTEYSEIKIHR
Chain of Human Siglec-7 (human) (Q9Y286 19-467): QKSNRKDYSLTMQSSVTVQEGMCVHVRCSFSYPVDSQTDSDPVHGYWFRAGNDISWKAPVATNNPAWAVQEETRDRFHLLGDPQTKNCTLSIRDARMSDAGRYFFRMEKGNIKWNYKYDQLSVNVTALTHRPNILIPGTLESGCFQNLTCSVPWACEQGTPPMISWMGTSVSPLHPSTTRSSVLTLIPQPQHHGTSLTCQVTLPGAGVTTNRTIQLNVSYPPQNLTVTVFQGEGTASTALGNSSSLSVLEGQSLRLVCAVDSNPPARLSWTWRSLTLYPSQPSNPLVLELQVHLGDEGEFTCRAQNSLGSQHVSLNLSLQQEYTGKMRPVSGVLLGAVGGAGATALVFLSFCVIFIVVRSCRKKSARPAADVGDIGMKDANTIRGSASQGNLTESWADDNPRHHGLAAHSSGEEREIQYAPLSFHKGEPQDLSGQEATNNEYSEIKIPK

Row | EC50 (read off the curve) [3] [µg/mL] | fold enhancement of EC50 after neuraminidase treatment of moDC [4] [fold] | Molecule | other results
1 | – | – | Isotype control - PE (antibody) | percent of NK cells in quadrant Q2 (isotype APC positive, isotype PE positive) [1]: 0.34; percent of NK cells in quadrant Q3 (isotype APC negative, isotype PE positive) [1]: 2.54
2 | – | – | Isotype control - APC (antibody) | percent of NK cells in quadrant Q1 (isotype APC positive, isotype PE negative) [2]: 0.975; percent of NK cells in quadrant Q2 (isotype APC positive, isotype PE positive) [2]: 0.34
3 | ~0.03 | 10 | mAbC (antibody, V domains shown, Anti-Siglec-9) VH: QIQLVQSGPELKKPGETVKISCKASGYTFTNYEMNWVKEAPGKGLKWMGWINTYTGESTYADDFKGRFAFSLETSASTVYLQINNLKDEDVATYFCVRDDYGRSYGFAYWGQGTLVTVSA VL: NIVLTQSPASLTVSLGQRANISCRASESVDSYGNSFMHWYQQKPGQPPKLLIYLASKLESGVPARFSGSGSRTDFTLTIDPVETDDAATYYCHQNNEDPPWTFGGGTKLEIK | –
4 | ~0.09 | 10 | mAbD (antibody, V domains shown, Anti-Siglec-9) VH: QIQLVQSGPELKKPGETVKISCKASGYTFTDYSMHWVKQAPGKGLKWMGWIITETGEPTYADDFRGRFAFSLETSANTAYLQINNLKNEDTATYFCARDFDGYWGQGTTLTVSS VL: DILMTQSPASLSASVGETVTITCRASENIYSYLAWYQQKRGKSPQFLVYNAKTLTEGVPSRFRGSGSGTQFSLKINSLQPEDFGTYYCQHHYGFPWTFGGGTKLEIK | –
5 | ~0.03 | 10 | mAbA (antibody, V domains shown, Anti-Siglec-9) VH: QVQLQQPGAELVKPGSPVKLSCKASYFTFTSYWMHWVRQRPGQGLEWIGEINPSNGHTNYNEKFESKATLTVDRSSSTAYMQLSSLTSEDSAVFYCANGVESYDFDDALDYWGQGTSVTVSS VL: DIQMTQTTSSLSASLGDRVTISCRASQDINNYLNWYQQKPDGTIKLLIYYTSRLHSGVPSRFSGSGSGTDYSLTINNLEQEDIATYFCQQGNTLPFTFGGGTKLEIK | –
